The values that follow come from patent US20260062456A1 (ALPINE IMMUNE SCIENCES, published 2026).

One assay concerns the target T1, CD96 (UniProt P40200 22-585, limits assumed).
T1 sequence (looked up): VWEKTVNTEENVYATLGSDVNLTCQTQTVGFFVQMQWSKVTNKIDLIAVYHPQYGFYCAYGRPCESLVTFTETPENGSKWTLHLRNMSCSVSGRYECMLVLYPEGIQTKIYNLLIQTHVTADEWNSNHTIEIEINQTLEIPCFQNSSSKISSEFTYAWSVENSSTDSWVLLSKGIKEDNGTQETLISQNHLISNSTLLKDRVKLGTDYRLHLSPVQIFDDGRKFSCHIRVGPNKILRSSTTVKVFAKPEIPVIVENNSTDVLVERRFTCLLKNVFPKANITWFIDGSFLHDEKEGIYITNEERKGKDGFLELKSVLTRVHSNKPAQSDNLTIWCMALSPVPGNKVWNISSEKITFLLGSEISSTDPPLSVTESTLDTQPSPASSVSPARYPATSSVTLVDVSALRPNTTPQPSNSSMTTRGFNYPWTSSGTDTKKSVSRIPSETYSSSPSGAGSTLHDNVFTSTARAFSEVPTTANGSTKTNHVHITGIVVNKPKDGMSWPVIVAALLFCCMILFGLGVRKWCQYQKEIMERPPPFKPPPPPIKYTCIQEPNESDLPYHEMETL
As to the kind of experiment: flow cytometry, cells expressing CD96.

A further assay addresses CD28 (UniProt P10747 19-220). As to the kind of experiment: flow cytometry, HEK293 cells transfected with CD28.

B1: CD112-IgV (Fc fusion, not shown: a dimerising Fc or GST)
chain: QDVRVQVLPEVRGQLGGTVELPCHLLPPVPGLYISLVTWQRPDAPANHQNVAAFHPKMGPSFPSPKPGSERLSFVSAKQSTGQDTEAELQDATLALHGLTVEDEGNYTCEFATFPKGSVRGMTWLRV
In the case of B1, the “MFI at 25 nM” value with CD96 amounted to 1170 MFI.

B2: WT CD80 ECD Fc (Fc fusion, not shown: a dimerising Fc or GST)
chain: VIHVTKEVKEVATLSCGHNVSVEELAQTRIYWQKEKKMVLTMMSGDMNIWPEYKNRTIFDITNNLSIVILALRPSDEGTYECVVLKYEKDAFKREHLAEVTLSVKADFPTPSISDFEIPTSNIRRIICSTSGGFPEPHLSWLENGEELNAINTTVSQDPETELYAVSSKLDFNMTTNHSFMCLIKYGHLRVNQTFNWNTTKQEHFPDN
Turning to B2, in the assay with CD28, the “MFI at 66.6 nM” value stood at 3070 MFI.
